Test results taken from article PMC6800521 (RNA, 2019).

Target: MBP-Noc1/Noc2 complex (yeast, UniProt Q12176 1-1025; P39744 1-710)
Assay: pull-down

Chain of MBP-Noc1/Noc2 complex (Q12176 whole entry, chain 1 of 2): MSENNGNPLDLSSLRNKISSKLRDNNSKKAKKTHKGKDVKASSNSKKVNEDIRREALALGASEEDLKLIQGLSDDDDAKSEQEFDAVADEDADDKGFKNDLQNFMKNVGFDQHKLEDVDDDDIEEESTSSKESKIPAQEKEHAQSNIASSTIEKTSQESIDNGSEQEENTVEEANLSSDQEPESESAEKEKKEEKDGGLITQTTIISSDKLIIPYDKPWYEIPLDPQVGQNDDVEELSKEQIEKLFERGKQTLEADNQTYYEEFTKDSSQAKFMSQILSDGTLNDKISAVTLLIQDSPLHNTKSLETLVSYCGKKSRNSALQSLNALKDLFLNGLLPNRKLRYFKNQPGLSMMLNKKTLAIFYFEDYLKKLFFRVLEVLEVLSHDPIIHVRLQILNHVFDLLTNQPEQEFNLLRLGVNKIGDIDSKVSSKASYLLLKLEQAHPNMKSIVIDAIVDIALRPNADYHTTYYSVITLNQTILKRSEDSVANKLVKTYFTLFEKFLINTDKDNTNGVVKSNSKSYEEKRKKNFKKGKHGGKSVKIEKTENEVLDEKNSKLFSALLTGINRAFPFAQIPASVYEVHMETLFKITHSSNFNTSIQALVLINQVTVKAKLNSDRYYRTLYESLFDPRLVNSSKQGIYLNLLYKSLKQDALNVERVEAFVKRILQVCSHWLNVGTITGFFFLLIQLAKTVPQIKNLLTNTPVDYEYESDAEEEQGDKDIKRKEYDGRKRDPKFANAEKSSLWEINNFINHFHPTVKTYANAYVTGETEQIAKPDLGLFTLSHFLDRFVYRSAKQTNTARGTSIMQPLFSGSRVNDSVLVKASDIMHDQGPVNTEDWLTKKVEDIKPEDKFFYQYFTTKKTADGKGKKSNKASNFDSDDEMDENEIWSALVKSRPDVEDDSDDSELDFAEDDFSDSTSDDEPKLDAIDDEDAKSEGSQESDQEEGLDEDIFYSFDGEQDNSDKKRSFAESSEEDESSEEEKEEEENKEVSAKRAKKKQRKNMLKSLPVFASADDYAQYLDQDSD
Chain of MBP-Noc1/Noc2 complex (P39744 whole entry, chain 2 of 2): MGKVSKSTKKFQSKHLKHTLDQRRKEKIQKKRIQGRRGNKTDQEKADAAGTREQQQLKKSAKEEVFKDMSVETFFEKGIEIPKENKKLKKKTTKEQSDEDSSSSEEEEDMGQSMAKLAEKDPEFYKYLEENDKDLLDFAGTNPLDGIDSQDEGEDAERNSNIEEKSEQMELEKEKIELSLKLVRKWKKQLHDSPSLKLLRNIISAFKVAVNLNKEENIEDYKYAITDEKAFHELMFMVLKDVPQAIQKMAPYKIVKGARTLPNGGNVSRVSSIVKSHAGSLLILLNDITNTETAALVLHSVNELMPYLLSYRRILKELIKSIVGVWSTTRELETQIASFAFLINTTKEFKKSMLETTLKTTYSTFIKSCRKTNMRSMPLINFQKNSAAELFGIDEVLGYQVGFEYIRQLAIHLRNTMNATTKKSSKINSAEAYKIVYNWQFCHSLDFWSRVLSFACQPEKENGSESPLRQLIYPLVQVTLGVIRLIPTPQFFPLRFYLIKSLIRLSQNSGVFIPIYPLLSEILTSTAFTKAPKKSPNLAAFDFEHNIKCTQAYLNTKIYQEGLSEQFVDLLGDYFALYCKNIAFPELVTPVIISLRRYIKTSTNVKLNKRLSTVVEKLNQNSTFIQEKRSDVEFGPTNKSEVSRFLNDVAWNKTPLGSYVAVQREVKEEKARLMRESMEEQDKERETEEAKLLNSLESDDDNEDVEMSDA

B1: Rrp5 full length (natural protein, yeast, UniProt Q05022 1-1729, looked up)
chain: MVASTKRKRDEDFPLSREDSTKQPSTSSLVRNTEEVSFPRGGASALTPLELKQVANEAASDVLFGNESVKASEPASRPLKKKKTTKKSTSKDSEASSANSDEARAGLIEHVNFKTLKNGSSLLGQISAITKQDLCITFTDGISGYVNLTHISEEFTSILEDLDEDMDSDTDAADEKKSKVEDAEYESSDDEDEKLDKSNELPNLRRYFHIGQWLRCSVIKNTSLEPSTKKSKKKRIELTIEPSSVNIYADEDLVKSTSIQCAVKSIEDHGATLDVGLPGFTGFIAKKDFGNFEKLLPGAVFLGNITKKSDRSIVVNTDFSDKKNKITQISSIDAIIPGQIVDLLCESITKNGIAGKVFGLVSGVVNVSHLRTFSEEDLKHKFVIGSSIRCRIIACLENKSGDKVLILSNLPHILKLEDALRSTEGLDAFPIGYTFESCSIKGRDSEYLYLALDDDRLGKVHSSRVGEIENSENLSSRVLGYSPVDDIYQLSTDPKYLKLKYLRTNDIPIGELLPSCEITSVSSSGIELKIFNGQFKASVPPLHISDTRLVYPERKFKIGSKVKGRVISVNSRGNVHVTLKKSLVNIEDNELPLVSTYENAKNIKEKNEKTLATIQVFKPNGCIISFFGGLSGFLPNSEISEVFVKRPEEHLRLGQTVIVKLLDVDADRRRIIATCKVSNEQAAQQKDTIENIVPGRTIITVHVIEKTKDSVIVEIPDVGLRGVIYVGHLSDSRIEQNRAQLKKLRIGTELTGLVIDKDTRTRVFNMSLKSSLIKDAKKETLPLTYDDVKDLNKDVPMHAYIKSISDKGLFVAFNGKFIGLVLPSYAVDSRDIDISKAFYINQSVTVYLLRTDDKNQKFLLSLKAPKVKEEKKKVESNIEDPVDSSIKSWDDLSIGSIVKAKIKSVKKNQLNVILAANLHGRVDIAEVFDTYEEITDKKQPLSNYKKDDVIKVKIIGNHDVKSHKFLPITHKISKASVLELSMKPSELKSKEVHTKSLEEINIGQELTGFVNNSSGNHLWLTISPVLKARISLLDLADNDSNFSENIESVFPLGSALQVKVASIDREHGFVNAIGKSHVDINMSTIKVGDELPGRVLKIAEKYVLLDLGNKVTGISFITDALNDFSLTLKEAFEDKINNVIPTTVLSVDEQNKKIELSLRPATAKTRSIKSHEDLKQGEIVDGIVKNVNDKGIFVYLSRKVEAFVPVSKLSDSYLKEWKKFYKPMQYVLGKVVTCDEDSRISLTLRESEINGDLKVLKTYSDIKAGDVFEGTIKSVTDFGVFVKLDNTVNVTGLAHITEIADKKPEDLSALFGVGDRVKAIVLKTNPEKKQISLSLKASHFSKEAELASTTTTTTTVDQLEKEDEDEVMADAGFNDSDSESDIGDQNTEVADRKPETSSDGLSLSAGFDWTASILDQAQEEEESDQDQEDFTENKKHKHKRRKENVVQDKTIDINTRAPESVADFERLLIGNPNSSVVWMNYMAFQLQLSEIEKARELAERALKTINFREEAEKLNIWIAMLNLENTFGTEETLEEVFSRACQYMDSYTIHTKLLGIYEISEKFDKAAELFKATAKKFGGEKVSIWVSWGDFLISHNEEQEARTILGNALKALPKRNHIEVVRKFAQLEFAKGDPERGRSLFEGLVADAPKRIDLWNVYVDQEVKAKDKKKVEDLFERIITKKITRKQAKFFFNKWLQFEESEGDEKTIEYVKAKATEYVASHESQKADE
B1: binds.
